# Test results from patent US7230085B2, “Anti-DOTA antibody” (Immunomedics, Inc., priority 2001, dated 2007).
# Where “and” joins values, the source holds several entries; their conditions need not be identical. Equal entries are not always repeated. Entries after “also recorded” stand apart in the source; their conditions may differ.
# How the values were obtained:
# BSA-DOTA-Yttrium = test: Inhibition of LG1 binding to BSA-DOTA-Yttrium by hLL2-DOTA metal complexes (ELISA); settings: LG1 0.1 μg/ml; inhibitors 10 to 0.0001 μg/ml
# Experimental: The binding of LG1 to BSA-DOTA-Yttrium is also tested in the presence of a panel of hLL2-DOTA metal complexes by incubating LG1 at concentration 0.1 μg/ml with hLL2 and the DOTA-hLL2 conjugates, at concentration 10 to 0.0001 μg/ml, and then adding to ELISA plates coated with BSA-DOTA-Yttrium.
# hLL2-DOTA = test: Qualitative binding on size-exclusion HPLC; settings: SE-HPLC
# Description: (§1) The msAb, LG1×hMN-14 (Fab′×Fab) is shown by the same analysis to bind to hLL2-DOTA-yttrium.
# hLL2-DOTA-yttrium = test: Qualitative binding on size-exclusion HPLC; settings: SE-HPLC
# Description: as §1
# hLL2 [1] = test: Qualitative binding on size-exclusion HPLC; settings: SE-HPLC
# Description: as §1
# indium-DOTA alone = test: LG1 binding to indium-DOTA alone
# Description: (§2) To determine the essential features that are important to elicit LG1 binding, labeled DOTA (indium-111) was linked to a hapten, via lysine residues, on either the alpha (DOTA-Lys(HSG)-D-Tyr-Lys(HSG)-NH2) or epsilon (biotin-D-Phe-D-Lys[DOTA]) positions of one of the DOTA carboxy groups. LG1 did bind the epsilon-linked indium-DOTA, but not the alpha-linked indium DOTA. […] Thus, the antibody of the current invention is “universal” in that it may bind to any DOTA-metal complex with a pendant N-alkylacetamide group, regardless of the type of metal with which DOTA is complexed. As used herein, the phrases “universal anti-DOTA antibody” or “universally binds” are used to mean an antibody that binds to any DOTA or DOTA-metal complex with a pendant N-alkylacetamide group.
# [2] = test system: biotin-D-Phe-D-Lys(DOTA-indium-111); test: Qualitative binding on size-exclusion HPLC; settings: epsilon-linked indium-DOTA
# Description: as §2, §1
# [3] = test system: indium-111-DOTA-Phe-Lys(HSG)-D-Tyr-Lys(HSG)-NH2; test: Qualitative binding on size-exclusion HPLC
# Description: as §2, §1
# hLL2 [4] = test: ELISA binding of LG1 to hLL2
# Experimental: (§3) LG1 is tested by ELISA for binding to hLL2 and a panel of different metal complexes of DOTA-hLL2. The capture proteins are diluted to 10 μg/ml, and dilutions of LG1 are assayed. Binding is shown using a peroxidase-conjugated goat anti-mouse IgG Fc specific antibody.
# [5] = test system: metal complexes of DOTA-hLL2; test: ELISA binding of LG1 to DOTA-hLL2 metal complexes
# Experimental: Immunocompetent mice were immunized mice with the macrocyclic chelate DOTA, previously coupled to a humanized immunoglobulin (hIgG). A number of mice were injected and the harvested splenocytes fused with the mouse myeloma cell line SP2/0, according to a standard technique. A total of 1800 clones were screened by ELISA for reactivity with DOTA-conjugated hIgG and hIgG alone. Initially, 25 clones were identified as secreting an IgG that bound to the IgG-DOTA conjugate, but not to the IgG. After being sub-cloned three times, only one hybrid, termed LG1, remained positive and this was adapted to grow in serum-free media. […] LG1 was purified from culture supernatant with a yield of ^˜50 mg/liter of media. […] These metals include gadolinium, gallium, indium, lead, lutetium and yttrium. Additionally, LG1 has a high affinity for a variety of DOTA compounds, showing strong reactivity starting at concentrations of ^˜1 ng/mL (^˜10^−9M), compared to previously produced anti-DOTA antibodies that had affinities measured in microgram amounts.
# as §3
# [6] = Isoelectric focusing of purified LG1; assay type: physicochemical
# Experimental: LG1 cells are expanded and adapted to grow in H-SFM media in serum-free conditions. The antibody LG1 is isolated from the culture media by affinity chromatography on Protein G Sepharose with a yield of ^˜50 mg of IgG per liter of culture media. The purified antibody is analyzed by SDS polyacrylamide electrophoresis, isoelectric focusing, and its isotype is determined by ELISA with a commercially available kit (Southern Biotechnology, Birmingham, Ala.).
# hMN-14-DOTA-yttrium-90 = test: Qualitative binding on size-exclusion HPLC; settings: SE-HPLC
molecule,measurement,setting,value
"LG1: murine monoclonal anti-DOTA antibody, IgG2b with a lambda light chain (antibody, V domains shown) VH: EVMLVESGGGLVKPGGSLTLSCAASGFTFTAHAMSWVRQTPEKRLEWVATISGGGTYTYFPDSFQGRFTISSDNAKNTLYLQMSSLRSEDTSMYFCTRHGDYRYAFGYWGQGTLVTVSA VL: VVTQESALTTSPGETVTLTCRSSSGAVTTNNYANWVQEKPDHLFTGLIGGTNNRAPGVPARFSGSLIGDKAALTITGAQTEDEAIYFCALWFSDHWVFGGGTELTVLG",specificity in inhibition assay,BSA-DOTA-Yttrium,"anti-DOTA specific, independent of the metal being bound in the chelate ring"
same,binding to hLL2-DOTA,hLL2-DOTA,positive binding
same,binding to hLL2-DOTA-yttrium,hLL2-DOTA-yttrium,positive binding
same,binding to hLL2 itself,hLL2 [1],no binding
same,binding to indium-DOTA alone,indium-DOTA alone,did not bind
same,binding to biotin-D-Phe-D-Lys(DOTA-indium-111),[2],positive binding; also recorded: did bind
same,binding to alpha-amino-linked indium-111-DOTA peptide,[3],no binding and not
same,binding to hLL2,hLL2 [4],no binding
same,binding to DOTA-hLL2 and its metal complexes,"[5]; ELISA, gadolinium, gallium, indium, lead, lutetium, yttrium and no metal",Equivalent binding; also recorded: Identical binding; also recorded: bind equally; also recorded: bind equivalently well; also recorded: binds to gadolinium-DOTA complexes as well as it binds to the yttrium-DOTA complexes
same,concentration at which strong reactivity starts,"[5]; ELISA, variety of DOTA compounds",~1 ng/mL and ~10^−9 M
same,Kd,"[5]; estimated by ELISA method to determine ligand binding affinity, read-out: affinity towards many different metal-DOTA complexes",0.001 to 0.1 nM
same,PI,[6],5.85-6.85
same,binding to hMN-14-DOTA-yttrium-90,hMN-14-DOTA-yttrium-90,positive binding
